From the supplement of paper PMC12764529
± gives the half width of the 95% confidence interval.

How the values were obtained:
[1] = folding stability dG unfold from trypsin proteolysis; higher = more stable
Summary of the method: (§1)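 Designed mini-proteins with no cysteine and under 80 residues were kept only if AlphaFold2 dimer inter-PAE was above 15. In a PA-tagged cDNA display construct, they were digested with trypsin and chymotrypsin and then sequenced. K50 was inferred by Bayesian fitting of counts, and unfolding free energy was derived per protease or combined against a sequence-predicted unfolded-state K50 and a shared folded-state K50.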

[2] = folding stability dG unfold from chymotrypsin proteolysis; higher = more stable
Summary of the method: as §1

[3] = folding stability dG unfold (combined trypsin and chymotrypsin); higher = more stable
Summary of the method: as §1

Row | Sequence | folding stability dG unfold [1] [kcal/mol] | folding stability dG unfold [2] [kcal/mol] | folding stability dG unfold [3] [kcal/mol]
1 | SAGGMETWRIKVDGKEIEVTVEDGKITVTFADGTKVEITLEEGETPEEVAKRLAEELGADKVEIEKVPSAGG [r13_852_TrROS_Hall] | 3.38 ± 0.48 | 3.31 ± 0.078 | 3.3 ± 0.19
2 | SAGGMEVTLRITAEGPEQLEKIQEILDELDVEEVNPTENEVEFRFPGPEPLAKLKEIAEELGLKVEGSAGGS [r16_88_TrMRF] | -0.457 ± 0.23 | -0.635 ± 0.28 | -0.377 ± 0.25
3 | SAGGMEYDPETKTFHLHVPGGNLPELREAIENAPDRLVTIEVEDPLTDKPRLFTLPAEEARKFLEAGSAGGS [r16_797_TrMRF] | -0.182 ± 0.12 | -0.455 ± 0.25 | -0.254 ± 0.095
4 | SAGGMGTPFTTLTVTLEFPSSESLEEAKEKAEELAEELRRAHPEVVSIEIEVSKEGDTYKVKLTVTIASSAG [r5_446_JUSTAS] | 4.37 ± 0.22 | 4.72 ± 0.11 | 4.7 ± 0.13
5 | SAGGMHHLEIYRFEDRKLVVLHLEDKPVVIEVEPGLTEEEAAEKAIEALKEAFPDKEIVIDSVEVKEESAGG [r13_884_TrMRF] | -0.0489 ± 0.064 | 0.41 ± 0.11 | 0.217 ± 0.11
6 | SAGGMIEIIPNPPIIIVRDASTNEISVYNIDAPPGSITRVELTSDGSILIYNPATGKVLVLPKSDIKSAGGS [r16_410_TrMRF] | 1.33 ± 0.043 | 1.74 ± 0.071 | 1.62 ± 0.077
7 | SAGGMIEVTIPLEEYFDENGNPTEEAKKKIEEAKKKAEELKKKGEPAEVKVTVVEPEPYVGPDNPELVSAGG [r13_731_JUSTAS] | 0.278 ± 0.29 | 0.569 ± 0.059 | 0.652 ± 0.28
8 | SAGGMIIIKFKTKEQAKKAIEAAKKGKEIEITLKDGKKIKAKVVKVEEKPNYVYLVIKTEDGKEIKFSAGGS [r16_254_TrROS_Hall] | 2.16 ± 0.086 | 2.42 ± 0.038 | 2.31 ± 0.12
9 | SAGGMIKIEKEEDGTLRITIVVPEKEEEAEELAEKLKEKLKELGVEEVKIEVVEKDGKVVVEIEVKKSAGGS [r8_113_TrROS_Hall] | 2.29 ± 0.1 | 2.77 ± 0.16 | 2.53 ± 0.13
10 | SAGGMIKPGEKVKVRAVLRVGEEEEEIELELPLPENATVEDIAQAILDLIPEEPRKDAEVDIEVEPVSAGGS [r16_321_TrMRF] | -0.468 ± 0.3 | 1.21 ± 0.094 | 0.93 ± 0.14
11 | SAGGMIKSEKLIKSPENETIKVETTIILDENGNPKSVKKKITVYKNGKPVKEMEISSIGNEIEIKKPSAGGS [r16_35_JUSTAS] | -0.308 ± 0.65 | 1.48 ± 0.15 | 1.14 ± 0.21
12 | SAGGMIPPEELAARAEAVREAAPASGEVVRTTVVLPSPGLVTRVDLVYEPGAGRITVESVSEVPPELLSAGG [r13_37_JUSTAS] | 0.496 ± 0.027 | 0.414 ± 0.032 | 0.461 ± 0.046
13 | SAGGMIPPEKLEEIAKKIAEETEPLGKVVKHLFVDPLEDEVVIIELTVYPGPKKIEIKEIKVYPPEELSAGG [r13_37_TrMRF] | 0.0241 ± 0.084 | 0.251 ± 0.034 | 0.223 ± 0.16
14 | SAGGMIPVSPEQYKAVEKLLKEGKDGSTVLVKTEDGRYIEIDPAGTARFFGDKPKEFPLEKIKKIIPSAGGS [r16_664_TrMRF] | -0.209 ± 0.13 | 0.469 ± 0.14 | 0.235 ± 0.12
15 | SAGGMITEEEILELEKRIREAAEAGDPETVEEELERAKEALEEYKKKGNKELLKKVEEIVKRAEELIASAGG [r13_137_JUSTAS] | 3.8 ± 0.2 | 2.7 ± 0.14 | 3.35 ± 0.26
16 | SAGGMKEIEIDIPLENGEPAKIRIILLNLPDKPRAFIDIESKILPKEEIAKIITKLLPEEIKEVVIDESAGG [r13_404_TrMRF] | 1.03 ± 0.092 | 0.383 ± 0.5 | 0.694 ± 0.28
17 | SAGGMKFKIVKIEVKEDKVTIEIEAETEEELEEAKKLAEELAKKLGLSKEKIEVKIELRPPPEEEEEESAGG [r13_430_TrROS_Hall] | 2.43 ± 0.23 | 2.19 ± 0.15 | 2.55 ± 0.52
18 | SAGGMKIEGMTPEEVEALAKALAEAGYEVVSVTVTYDPETDTVTVTVVVRDKKTGEIKKVVTVTLPPSAGGS [r16_750_TrROS_Hall] | 3.33 ± 0.1 | 2.69 ± 0.069 | 2.99 ± 0.072
19 | SAGGMKIEIEIEMTPEEVRKAIEELAKALGLKIVKVEVEVERKEDGTLRVRVTIEIEPLPEEELEPESAGGS [r8_374_TrROS_Hall] | 3.63 ± 0.16 | 4.32 ± 0.18 | 4 ± 0.25
20 | SAGGMKIEIKIIDEETGEEITITVTMTPEEIEKLAKELEEKYPGLEIVSVEIEEKDGEIIITIKIKKKSAGG [r13_196_TrROS_Hall] | 3.75 ± 0.25 | 2.71 ± 0.071 | 3.29 ± 0.21
21 | SAGGMKIEIVEVTPTRIRIRLENGEVLTLEEIRKLLEEEGLPEPMTVDQIAELLRKRGLKITEIEIVPSAGG [r13_610_TrROS_Hall] | 2.97 ± 0.052 | 3.274 ± 0.025 | 3.18 ± 0.083

Row | Sequence | folding stability dG unfold [1] [kcal/mol] | folding stability dG unfold [2] [kcal/mol] | folding stability dG unfold [3] [kcal/mol]
22 | SAGGMKIIPLEEAEKFIEANPDKELVIGVRPGESLYLFVVKRDPDKPFNIEVLEVIEFDPDGNGRHLPSAGG [r13_481_TrMRF] | 1.14 ± 0.11 | 1.6 ± 0.1 | 1.3 ± 0.16
23 | SAGGMKIKAEDIVSVEVTYNEETNELTVKVTVRINGKEVTLTFPEGMSEEELKRLLEELIKKGELEIESAGG [r13_225_TrROS_Hall] | 2.19 ± 0.12 | 2.96 ± 0.1 | 2.78 ± 0.11
24 | SAGGMKIKDFEPVRVDENGMYVIDLKYEDPDNGNEYQVEFMIPNPPGNMHPITFTMKSPEDALDEILKSAGG [r13_26_TrROS] | -0.845 ± 0.27 | -0.325 ± 0.28 | -0.445 ± 0.13
25 | SAGGMKIKIKIKPGQVILIKIRNKETGEEKTILVEVKEDQEITIELPEGYEIVDIKIVPLEDLPEEELSAGG [r13_119_TrROS_Hall] | 3.94 ± 0.3 | 3.96 ± 0.17 | 4.05 ± 0.23
26 | SAGGMKIKITEVTVTRYYYDPKTGKLKKVEKVKVLVIEVELEPGQTAEEIAAALKKLFPDLKIVVVDSAGGS [r8_30_TrROS_Hall] | 4.14 ± 0.092 | 5.33 ± 0.11 | 5.17 ± 0.18
27 | SAGGMKIKKITVEKNPETGELVVTVEVEINGKKYKFTFYKDGTVKVEVEVNGKKVTITLPVEELKKLSAGGS [r8_238_TrROS_Hall] | 2.13 ± 0.058 | 3.8 ± 0.063 | 3.35 ± 0.13
28 | SAGGMKITEEAIKNFPPGRWIQFRIPDDGYMVTIRVHDPGEIKINYRKFPPGNGEPREEQEHKIPLDSAGGS [r16_163_TrROS] | 0.845 ± 0.24 | 0.825 ± 0.28 | 0.917 ± 0.27
29 | SAGGMKITIKEDEETGEKVIEIEDEETGERVRVVFNPDGEEIEIEVPSPEVLEALKELGIEKVEVEEVSAGG [r13_511_TrROS_Hall] | 0.732 ± 0.13 | 1.07 ± 0.063 | 0.976 ± 0.19
30 | SAGGMKIVSESTDPSVPTSYVTIEITDPKTGKKTTIKLPQDPAAGTGSPEALAKEVREKLKLPEGVELSAGG [r13_362_JUSTAS] | 0.221 ± 0.083 | 1.01 ± 0.053 | 0.814 ± 0.073
31 | SAGGMKIVSVEVVKDEETGVYVIKLTVEDPETNETYTLEVVIKNEDGELKTITVKAKSKEDALKELLKSAGG [r13_26_TrROS_Hall] | 1.85 ± 0.067 | 3.6 ± 0.14 | 3.1 ± 0.23
32 | SAGGMKKIKIVVKVPPNVTAEELAKALEDELKKKGYEVKVTVKVVKKPDGSLYVVIEVEIRPKNEKPSAGGS [r16_128_TrROS_Hall] | 3.04 ± 0.13 | 3.67 ± 0.075 | 3.52 ± 0.099
33 | SAGGMKKKIVEIEIVEVKYDEETNEVTIKIKIKNENGEEIEIEVTMSKEELEKMTPEELKKLVKELLKSAGG [r13_512_TrROS_Hall] | 2.16 ± 0.2 | 2.18 ± 0.24 | 2.12 ± 0.3
34 | SAGGMKKKLLILVDSNNPNIPLEKIKEFFKKKGFDEVETLSLENIPPEKAIELAKKEKKPLLIIPTSSAGGS [r16_94_TrMRF] | 1.376 ± 0.012 | 2.21 ± 0.04 | 1.97 ± 0.063
35 | SAGGMKKPIKAKIKIVKFEDGYLILIELPDGKIIAFKSPEELKAALEKFPEIEITEIEIIPPEEFLKKSAGG [r13_730_TrMRF] | 1.63 ± 0.067 | 3.47 ± 0.19 | 3.07 ± 0.22
36 | SAGGMKKYLLTLNVTLERPDSEESITLTKEVDSLEEAEKLKEEIEKKLKEEYPGRISFDVTIEEIEESAGGS [r16_475_JUSTAS] | 3.72 ± 0.1 | 4.15 ± 0.076 | 4.13 ± 0.12
37 | SAGGMKLTPEAKKLAEELKKEGKKVKIEKKDGYYVLTVDGKVYKSKEDMEKAAKDPNVKKVIVIKLPSAGGS [r16_275_TrROS_Hall] | 0.519 ± 0.13 | 1.95 ± 0.18 | 1.46 ± 0.18
38 | SAGGMKPKEVIEIEITLPDGRKIRIRLVKKDGKLYLFIEVPEENEEARELAEELAKKLPGVEVEVFEPSAGG [r13_34_TrROS_Hall] | 2.41 ± 0.1 | 3.26 ± 0.12 | 3.03 ± 0.14
39 | SAGGMKTITLEEAKALAEKAAEKGETVEIEVTLPDGTVVKFKVDAKTKKVELVEVKKLPAPPEDPEKKSAGG [r13_839_TrROS_Hall] | 1.12 ± 0.046 | 3.07 ± 0.088 | 2.68 ± 0.13
40 | SAGGMKTTLLKEEELPGGVKRKIYLTENSSGGYYYVVTVTTELEPPAESKVSVSSKKISPEELKKLLSAGGS [r16_45_JUSTAS] | 2.93 ± 0.14 | 3.55 ± 0.069 | 3.32 ± 0.17
41 | SAGGMKTVIVRVRRDSPEVRKALEALRKAKPGEEVELTVKGKKIRIVKIEEVDGEYYVTVEIEEEEESAGGS [r16_404_TrROS_Hall] | 3.39 ± 0.074 | 3.96 ± 0.062 | 3.75 ± 0.093
